Laboratory results taken from patent US20070111265A1, “Ligands for mineralocorticoid receptor (MR) and methods for screening for or designing MR ligands” (Van Andel Research Institute, priority 2005, published 2007).
Values belong to the binder of their own block, whether it stands above or below them.

Target: T1, human MR LBD (residues 727-984) containing a C808S mutation, 6xHis-GST fusion protein (human), P08235
T1 chain: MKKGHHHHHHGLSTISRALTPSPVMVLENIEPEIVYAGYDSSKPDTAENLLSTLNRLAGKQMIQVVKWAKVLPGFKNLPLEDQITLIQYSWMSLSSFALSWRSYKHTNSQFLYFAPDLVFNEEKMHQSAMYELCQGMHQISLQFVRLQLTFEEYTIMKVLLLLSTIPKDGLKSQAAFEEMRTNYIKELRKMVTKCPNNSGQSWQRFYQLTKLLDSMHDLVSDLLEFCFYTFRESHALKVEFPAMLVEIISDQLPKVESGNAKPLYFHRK
Experiment: AlphaScreen peptide competition; corticosterone
Conditions: modification not given

Binder: KEKHKILHRLLQDSS [SRC2-2]
IC50: 2200 nM

Binder: QEKHRILHKLLQNGN [SRC3-2]
IC50: 4600 nM

Binder: SKDHQLLRYLLDKDE [SRC1-3]
IC50: 1600 nM

Binders with a lower IC50, results first:

IC50: 1400 nM
Binder: TERHKILHRLLQESS [SRC1-2]

IC50: 1400 nM
Binder: KENNALLRYLLDRDD [SRC3-3]
